Here are results for two molecules from patent publication US20050260730A1 (published 2005).

The target in this assay is CDK2/cyclin A complex (human, UniProt P24941 1-298; P20248 173-432). The assay can be described thus: cell-based or functional assay.

Non-standard residues stand in square brackets, D forms with d. Phe(4-F) = N[C@@H](Cc1ccc(F)cc1)C(=O)O

B1: Ac-Arg-Arg-Leu-Asn-Phe-NH2 (peptide)
peptide: Ac-RRLNF-NH2
Consider B1, for which the “CDK2/cyclin A kinase activity IC50” value is above 50 µM.

B2: H-Arg-Arg-Leu-(p-F-Phe)-NH2 (peptide)
peptide: H-RRL[Phe(4-F)]-NH2
SMILES: CC(C)C[C@H](NC(=O)[C@H](CCCNC(=N)N)NC(=O)[C@@H](N)CCCNC(=N)N)C(=O)N[C@@H](Cc1ccc(F)cc1)C(N)=O
As for B2, the “CDK2/cyclin A kinase activity IC50” value worked out at 50 µM.
